From patent publication US20080050370A1 (Biogen, published 2008)
Where a chain is given by its changes, count along the chain named. Names and notes keep the numbering of the source.

Key:
[1] = molecular target: T1, LTβR-Ig (UniProt P36941 31-227, limits assumed); assay: bispecific sandwich ELISA: LTβR-Ig coated on the plate, purified antibody titrated, then TRAIL-R2 Fc 6X-His, detection with anti-His HRP conjugate; signal needs binding to both receptors
T1 construct: extracellular domain; also called LTβR Ig receptor; recombinantly produced LTβR receptor; not shown: human Fc region
T1 sequence (P36941 31-227 limits assumed): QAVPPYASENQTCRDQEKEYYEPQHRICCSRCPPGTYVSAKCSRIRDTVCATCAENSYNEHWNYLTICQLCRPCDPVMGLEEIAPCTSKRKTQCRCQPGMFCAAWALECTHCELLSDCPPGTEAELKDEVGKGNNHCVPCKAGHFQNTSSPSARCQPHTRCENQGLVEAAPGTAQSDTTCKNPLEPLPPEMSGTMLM

[2] = molecular target: T2, sLTβR (UniProt P36941 31-227, limits assumed); assay: SPR (Biacore 3000)
T2 construct: Used in solution in ITC and as the analyte in SPR; also called soluble lymphotoxin beta receptor; antigen
T2 sequence (P36941 31-227 limits assumed): as above

[3] = molecular target: T1, LTβR-Ig; assay: thermal challenge assay; T50 = temperature at which 50% of the molecules keep binding to plate-coated LTβR-Ig (DELFIA); unit taken from the x axis
Procedure: An aliquot of the supernatant was reserved for the reference DELFIA. […] For screens requiring multiple challenge temperatures (or for temperatures greater than 75° C.) the supernatants were transferred to 96-well PCR plates (Applied Biosystems, Foster City, Calif., Cat. # N801-560) and incubated for 90 minutes at the desired temperature.
After thermal challenge, the samples were centrifuged at 2,000 RPM to remove aggregated material. Soluble BHA10 scFv samples remaining in the treated, cleared supernatant were assayed for binding to cognate LTβR Ig antigen by DELFIA assay. […] Plates were coated overnight at 4° C., and blocked with DELFIA assay buffer (DAB, 10 mM Tris HCl, 150 mM NaCl, 20 μM EDTA, 0.5% BSA, 0.02% Tween 20, 0.01% NaN₃, pH 7.4) for one hour with shaking at room temperature. Plates were washed 3 times with DAB without BSA (Wash buffer), and test samples diluted in DAB were added to the plates in a final volume of 100 μl. The plates were incubated for one hour with shaking at room temperature, and then washed 3 times with Wash buffer to remove unbound and functionally inactivated scFv molecules. Bound BHA10 scFv was detected by addition of 100 μl per well of DAB containing 40 ng/ml of Eu-labeled anti-His₆ antibody (Perkin Elmer, Boston, Mass., Cat. # AD0109) and incubated at room temperature with shaking for one hour.

[4] = molecular target: T2, sLTβR; assay: SPR (Biacore 3000), scFv captured on anti-PENTA-His, sLTβR 1-200 nM as analyte, 1:1 Langmuir fit
Procedure: (§1) All experiments were performed in HBS-EP buffer, pH 7.4. […] 0.1 μM solutions of test scFvs were injected over the chip at a flow rate of 5 μl/min for 10 minutes and captured onto the surface via the immobilized PENTA-His antibody. To investigate binding between sLTβR and captured scFv, a concentration series of sLTβR (1, 2, 5, 10, 25, 50, 100, and 200 nM) was double injected at a flow rate of 30 μl/min onto the scFv-coated surface. Background was subtracted from test sample sensorgrams using sensorgram data from a flow cell containing buffer only and sensorgram data from the PENTA-His surface where scFv was injected followed by an injection of buffer instead of sLTβR. The curves were analyzed using the BiaEval 3.0 manufacturer's software. KD values were calculated by fitting kinetic association and dissociation curves to a 1:1 Langmuir binding model. Chip surfaces were regenerated by two consecutive 10 μL injections of 0.1 M glycine, pH 3.0.

[5] = molecular target: T1, LTβR-Ig; assay: thermal challenge assay, remaining binding to plate-coated LTβR-Ig read by DELFIA; unit taken from the x axis
[6] = molecular target: T2, sLTβR; assay: SPR (Biacore 3000), scFv captured on anti-PENTA-His, sLTβR as analyte, 1:1 Langmuir fit
Procedure: as §1

[7] = molecular target: T2, sLTβR; assay: SPR (Biacore 3000); with VH44/VL100 disulfide (second 'VH-S16E, VL-S46L' row, below the disulfide wild-type)
[8] = molecular target: T2, sLTβR; assay: SPR (Biacore 3000); with VH44/VL100 disulfide (second 'VH-S16Q, VL-S46L' row, below the disulfide wild-type)
[9] = molecular target: T2, sLTβR; assay: isothermal titration calorimetry at 30 °C, Fab titrated into sLTβR in PBS
Procedure: The Fab and sLTβR were concentrated to 6.0 and 2.0 mg/mL, respectively, using Amicon ultracentrifugal filter devices (MWCO 10,000). The concentrated stock solutions were simultaneously dialyzed against PBS prior to the ITC measurements. ITC was performed on a VP-ITC unit (MicroCal LLC, Northampton, Mass.) set to 30° C. Approximately 500 μL of a 7 μM sLTβR solution was placed into the sample cell and PBS dialysate was placed in the reference cell. […] ITC curves were analysed using the Origin Software supplied by the manufacturer.

B1: BHA10 scFv VH44:VL100 NH-Hercules bispecific antibody (bispecific antibody)
heavy: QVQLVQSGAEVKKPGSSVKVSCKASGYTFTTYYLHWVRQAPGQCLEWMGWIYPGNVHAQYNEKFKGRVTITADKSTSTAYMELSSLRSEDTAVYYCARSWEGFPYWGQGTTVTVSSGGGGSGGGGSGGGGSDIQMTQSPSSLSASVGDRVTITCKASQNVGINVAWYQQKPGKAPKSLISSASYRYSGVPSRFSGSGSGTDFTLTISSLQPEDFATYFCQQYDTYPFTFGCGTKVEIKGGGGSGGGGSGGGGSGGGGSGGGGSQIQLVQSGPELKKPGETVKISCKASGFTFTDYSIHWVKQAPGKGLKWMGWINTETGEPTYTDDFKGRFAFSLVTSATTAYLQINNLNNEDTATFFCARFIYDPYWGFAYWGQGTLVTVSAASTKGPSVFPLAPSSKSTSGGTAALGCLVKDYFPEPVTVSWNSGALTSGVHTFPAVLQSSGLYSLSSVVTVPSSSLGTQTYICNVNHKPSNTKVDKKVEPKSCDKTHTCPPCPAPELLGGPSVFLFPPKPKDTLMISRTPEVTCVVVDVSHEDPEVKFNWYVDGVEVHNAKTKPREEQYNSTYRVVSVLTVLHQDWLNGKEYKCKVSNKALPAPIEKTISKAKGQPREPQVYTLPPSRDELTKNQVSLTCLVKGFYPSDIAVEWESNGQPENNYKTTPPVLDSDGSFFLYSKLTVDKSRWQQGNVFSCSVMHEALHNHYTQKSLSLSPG
light: QLVLTQSSSVSFSLGASAKLTCTLSSQHSTYTIEWYQQQPLKPPKYVMELKKDGSHSTGDGIPDRFSGSSSGADRYLSISNIQPEDEAIYICGVGDTIKEQFVYVFGGGTKVEIKRTVAAPSVFIFPPSDEQLKSGTASVVCLLNNFYPREAKVQWKVDNALQSGNSQESVTEQDSKDSTYSLSSTLTLSKADYEKHKVYACEVTHQGLSSPVTKSFNRGEC
notes: BHA10 scFv (anti-LTβR) joined by a (Gly4Ser)5 linker to the N-terminus of the chimeric 14A2 IgG1 (anti-TRAIL R2) heavy chain; also called N-Hercules with VH44:VL100 BHA10 scFv; N-"Hercules" Cys
**Q.** B1 was tested. Which EC50 [1] did it give?
**A.** The EC50 was 0.041 µg/mL.

B2: BHA10 scFv VH44:VL100/(Gly4Ser)4 NH-Hercules bispecific antibody (bispecific antibody, human IgG1, kappa)
heavy: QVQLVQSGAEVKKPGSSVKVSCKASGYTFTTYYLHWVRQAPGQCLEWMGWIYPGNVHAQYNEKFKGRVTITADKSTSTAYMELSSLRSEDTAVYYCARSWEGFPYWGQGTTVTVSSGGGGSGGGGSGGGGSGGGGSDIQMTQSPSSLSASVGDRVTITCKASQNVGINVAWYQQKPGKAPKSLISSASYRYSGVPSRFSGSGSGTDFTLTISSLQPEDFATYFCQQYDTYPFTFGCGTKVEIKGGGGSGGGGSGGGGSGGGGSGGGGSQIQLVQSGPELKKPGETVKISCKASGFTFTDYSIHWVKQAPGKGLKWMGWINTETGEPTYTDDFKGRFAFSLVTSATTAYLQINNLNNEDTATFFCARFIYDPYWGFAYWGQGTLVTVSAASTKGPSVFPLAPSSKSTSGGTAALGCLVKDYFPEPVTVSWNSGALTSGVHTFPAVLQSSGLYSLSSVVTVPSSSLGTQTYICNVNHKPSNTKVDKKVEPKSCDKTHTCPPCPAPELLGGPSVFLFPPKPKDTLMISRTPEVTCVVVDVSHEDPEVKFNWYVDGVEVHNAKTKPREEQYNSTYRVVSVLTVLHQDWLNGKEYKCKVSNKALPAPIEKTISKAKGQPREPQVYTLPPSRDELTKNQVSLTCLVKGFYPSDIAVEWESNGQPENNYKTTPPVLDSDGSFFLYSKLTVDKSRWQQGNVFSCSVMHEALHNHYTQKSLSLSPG
light: B1 light
notes: scFv at the N-terminus of the chimeric 14A2 IgG1 heavy chain; For signal peptides see m17; also called XWU028; pXWU028
**Q.** With B2 as the binder, how does the EC50 [1] read?
**A.** The EC50 was 0.055 µg/mL.

B3: BHA10 scFv VH44:VL100 C-Hercules bispecific antibody (bispecific antibody, human IgG1, kappa)
heavy: not shown
light: B1 light
notes: BHA10 scFv joined by a Ser(Gly4Ser)3 linker to the C-terminus of the chimeric 14A2 IgG1 heavy chain; For signal peptides see m17; also called C-Hercules with VH44:VL100 BHA10 scFv; C-"Hercules" Cys
**Q.** With B3 as the binder, how does the EC50 [1] read?
**A.** The EC50 was 0.087 µg/mL.

B4: BHA10 scFv VH44:VL100/(Gly4Ser)4 C-Hercules bispecific antibody (bispecific antibody, human IgG1, kappa)
heavy: not shown
light: B1 light
notes: scFv at the C-terminus of the chimeric 14A2 IgG1 heavy chain; For signal peptides see m17; also called XWU036; pXWU036
**Q.** Which EC50 [1] does the source give for B4 here?
**A.** The EC50 was 0.086 µg/mL.

B5: conventional BHA10 scFv, VH-(Gly4Ser)3-VL (scFv)
scFv: QVQLVQSGAEVKKPGSSVKVSCKASGYTFTTYYLHWVRQAPGQGLEWMGWIYPGNVHAQYNEKFKGRVTITADKSTSTAYMELSSLRSEDTAVYYCARSWEGFPYWGQGTTVTVSSGGGGSGGGGSGGGGSDIQMTQSPSSLSASVGDRVTITCKASQNVGINVAWYQQKPGKAPKSLISSASYRYSGVPSRFSGSGSGTDFTLTISSLQPEDFATYFCQQYDTYPFTFGQGTKVEIK
notes: also called Wild-type, (G4S)*3 linker; WT
**Q.** How did the Kd [2] turn out when B5 was run?
**A.** Its Kd is 2.7 nM.

**Q.** What about the T50 [3] of the same binder?
**A.** Its T50 is 49 °C.

**Q.** And the Kd [4]?
**A.** The Kd was 3.7 nM.

B6: BHA10 VH44/VL100 scFv (scFv)
scFv, VH-(Gly4Ser)3-VL: B5 scFv with G44C, Q231C
modifications: disulfide bond between VH44 Cys and VL100 Cys (Kabat)
notes: Expressed in E. coli; also called IEH006 (GS3 + SS); pIEH006
**Q.** B6 was tested. Which T50 [3] did it give?
**A.** Its T50 is 59 °C.

**Q.** What about the “midpoint temperature of the thermal challenge curve (T50)” value (shortened to “midpoint temperature”) [5] of the same binder?
**A.** The value was 61.5 °C.

B7: BHA10 (Gly4Ser)4 scFv (scFv)
scFv: QVQLVQSGAEVKKPGSSVKVSCKASGYTFTTYYLHWVRQAPGQGLEWMGWIYPGNVHAQYNEKFKGRVTITADKSTSTAYMELSSLRSEDTAVYYCARSWEGFPYWGQGTTVTVSSGGGGSGGGGSGGGGSGGGGSDIQMTQSPSSLSASVGDRVTITCKASQNVGINVAWYQQKPGKAPKSLISSASYRYSGVPSRFSGSGSGTDFTLTISSLQPEDFATYFCQQYDTYPFTFGQGTKVEIK
notes: His-tagged (captured through anti-PENTA-His); also called Wild-type, (G4S)*4 linker; GS4
**Q.** Which results are given for B7?
**A.** Kd [6]: 2.5 nM; Kd [2]: 2.1 nM; T50 [3]: 53 °C

B8: BHA10 VH44:VL100/(Gly4Ser)4 scFv (scFv)
scFv: B7 scFv with G44C, Q236C
notes: Cys at Kabat VH44 and VL100 form a disulfide; also called Wild-type, (G4S)*4 linker w/ VH44/VL100 disulfide; 009 (ss)
**Q.** B8 was tested. Which Kd [6] did it give?
**A.** Its Kd is 4.3 nM.

**Q.** And the Kd [2]?
**A.** The Kd was 3.3 nM.

**Q.** And the T50 [3]?
**A.** The T50 was 62 °C.

**Q.** And the “midpoint temperature” value [5]?
**A.** The value was 63.3 °C.

B9: BHA10 scFv VH44/VL100 disulfide, VH-S16E, VL-S46L, (G4S)4 linker (scFv, name in Kabat numbering)
scFv: B7 scFv with S16E, G44C, S182L, Q236C
notes: It is read here as the disulfide version; also called 080 VL-S46L + VH-S16E + ss
**Q.** How did the Kd [7] turn out when B9 was run?
**A.** The Kd was 4 nM.

B10: BHA10 scFv VH44/VL100 disulfide, VH-S16Q, VL-S46L, (G4S)4 linker (scFv, name in Kabat numbering)
scFv: B7 scFv with S16Q, G44C, S182L, Q236C
notes: It is read here as the disulfide version; also called pIEH081
**Q.** Which Kd [8] does the source give for B10 here?
**A.** Its Kd is 3.3 nM.

B11: BHA10 scFv VH-P101D, (G4S)4 linker (scFv, name in Kabat numbering)
scFv: B7 scFv with P104D
notes: Built on the (G4S)4 scFv; The position is a Kabat number of VH; also called 077 VH-P101D; pIEH058
**Q.** B11 was tested. Which Kd [2] did it give?
**A.** The Kd was 5.2 nM.

B12: BHA10 scFv VH-S16E, (G4S)4 linker (scFv, name in Kabat numbering)
scFv: B7 scFv with S16E
notes: Positions are Kabat numbers of the VH domain; also called 074 VH-S16E; pIEH032
**Q.** With B12 as the binder, how does the Kd [2] read?
**A.** The Kd was 2 nM.

B13: BHA10 scFv VH-S16E, VH-V55G, VL-S46L, (G4S)4 linker (scFv, name in Kabat numbering)
scFv: B7 scFv with S16E, V56G, S182L
notes: Positions are Kabat numbers of the VH and VL domains; also called 087 VL-S46L + VH-S16E, V55G; pIEH087
**Q.** Which Kd [2] does the source give for B13 here?
**A.** The Kd was 3.8 nM.

B14: BHA10 scFv VH-S16E, VL-S46L, (G4S)4 linker, no disulfide (scFv, name in Kabat numbering)
scFv: B7 scFv with S16E, S182L
notes: Positions are Kabat numbers of the VH and VL domains, not of the scFv entry; also called 076 VL-S46L + VH-S16E; pIEH076
**Q.** Which Kd [2] does the source give for B14 here?
**A.** Its Kd is 3.4 nM.

B15: BHA10 scFv VH-S16Q, VL-S46L, (G4S)4 linker, no disulfide (scFv, name in Kabat numbering)
scFv: B7 scFv with S16Q, S182L
notes: Positions are Kabat numbers of the VH and VL domains; also called 078 VL-S46L + VH-S16Q; pIEH078
**Q.** Which Kd [2] does the source give for B15 here?
**A.** The Kd was 4.2 nM.

B16: BHA10 Fab (Fab, V domains shown)
VH: QVQLVQSGAEVKKPGSSVKVSCKASGYTFTTYYLHWVRQAPGQGLEWMGWIYPGNVHAQYNEKFKGRVTITADKSTSTAYMELSSLRSEDTAVYYCARSWEGFPYWGQGTTVTVSS
VL: DIQMTQSPSSLSASVGDRVTITCKASQNVGINVAWYQQKPGKAPKSLISSASYRYSGVPSRFSGSGSGTDFTLTISSLQPEDFATYFCQQYDTYPFTFGQGTKVEIK
notes: Made by enzymatic cleavage of BHA10 IgG1; also called BHA10 Fab (CHO)
**Q.** Which results are given for B16?
**A.** T50 [3]: 62 °C; Kd [9]: 1.9 nM

B17: BHA10 scFv VL-S46L, (G4S)4 linker (scFv)
scFv: QVQLVQSGAEVKKPGSSVKVSCKASGYTFTTYYLHWVRQAPGQGLEWMGWIYPGNVHAQYNEKFKGRVTITADKSTSTAYMELSSLRSEDTAVYYCARSWEGFPYWGQGTTVTVSSGGGGSGGGGSGGGGSGGGGSDIQMTQSPSSLSASVGDRVTITCKASQNVGINVAWYQQKPGKAPKLLISSASYRYSGVPSRFSGSGSGTDFTLTISSLQPEDFATYFCQQYDTYPFTFGQGTKVEIKDDDDKSFLEQKLISEEDLNSAVDHHHHHH
notes: also called 072 VL-S46L; pIEH029
**Q.** What does the source list for B17?
**A.** Kd [2]: 4 nM; midpoint temperature of the thermal challenge curve (T50) [5]: 60.3 °C

B18: BHA10 scFv VH-V55G, (G4S)4 linker (scFv)
scFv: B17 scFv with V56G, L182S
notes: also called 079 VH-V55G; pIEH070
**Q.** How did the Kd [2] turn out when B18 was run?
**A.** The Kd was 2.2 nM.

B19: IEH031 (GS4 + SS + VL S46L) (scFv)
scFv: B17 scFv with G44C, Q236C
modifications: chain 1: engineered disulfide bond between Cys at pos 44 (VH Kabat 44) and Cys at pos 236 (VL Kabat 100)
notes: also called pIEH031; BHA10 scFv VH44-VL100 disulfide, (Gly4Ser)4 linker, VL S46L
**Q.** With B19 as the binder, how does the “midpoint temperature” value [5] read?
**A.** Its value is 72.3 °C.
